Reference: the RNAGym collection of RNA variant scans (doi:10.1073/pnas.2313332121)
This sample holds only a part of the variants without activity.

B1: TPR 5TU (parent)
chain: GGAUCUUCUCGAUCUAACAAAAAAGACAAAUCUGCCACAAAGCUUGAGAGCAUCUUCGGAUGCAGAGGCGGCAGCCUUCGGUGGCGCGAUAGCGCCAACGUUCUCAACUAUGACACGCAAAACGCGUGCUCCGUUGAAUGGAGUUUAUCAUG

Variants of: B1
Test: polymerase ribozyme fitness, log enrichment relative to wild type (log ratio); higher = more active; in vitro selection for triplet polymerase activity
Outline: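 After PCR construction and transcription, each subunit's mutant library from a heterodimeric triplet polymerase ribozyme was annealed with a biotinylated primer, the partner subunit and triplets. Incubation was frozen, at −7 °C, and extended constructs were gel-excised, bound to streptavidin beads and amplified by RT-PCR, in one selection round done in triplicate. Fitness is the logarithm of a genotype's enrichment divided by that of the wild type, from inverse-variance-weighted replicate averages of Illumina-sequenced inputs and outputs. The base of the logarithm is 2, and genotypes needed ≥10 input reads and ≥1 read per output.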

Row | Variant | polymerase ribozyme fitness (log ratio)
1 | GGAUCUUCUCGAUCUAACAAAAAAGACAAUUCUGCCACAAAGCUUGAGAGCAUCUUCGGAGGCAGAGACGGCAGCCUUCGGUGGCGCGAUAGUGCCAACGUUGUCAACUAUGACACGCAAAACGCGUGCUCCGUUGAAUGGAGUUUCUCAUG | ≤ -4.2
2 | GGAUCUUCUCGAUCUAACAAAAAAGACAAUUCUGCCACAAAGCUUGAGAGCAUCUUCGGAUGCAGAGGCGGCAGCCAUCGGUGUCGCGAUCGCCCCAAGGUUCUCAACUAUGACACGCAAAACGCGUGCUCCGUUGAAUGCAGUUUAUCAUG | ≤ -4.2
3 | GGAUCUUCUCGAUCUAACAAAAAAGACAAAACUGCCACAAGGCUUGAGAGCAUCUUCGGAUGCAGAGGCGGCAGCUUUCGGUGGCGCGAUAGAGCCAACGUUCUCAACUAUGACACGCAAAACGCGUGCUCCGUUAAAUAGAGUUUAUCAUG | -3.72
4 | GGAUCUUCUCGAUCUAACAAAAAAGACAAUUCUGCCACAAAGCGUGAGAGCCUCUUCGGAUGCAGAGGCGGCAGCCUUCGGUGGGGCGAUAGCGCCAACGUUCUCAGCUAUGACACGCAAAACGCCUGCUCCGAUGAAUGGAGUUUGUCAUG | ≤ -4.2
5 | GGAUCUUCUCGAUCUAACAAAAAAGACAAUUCUGCCACAAAGCUUGAGAGCAUCUACGGAUACAGAGGCGGCAGCCUUCGGUGGCGCGAUAGCGCCAACGUUCUCAACUAUGACACGCAAAACGCAUGCUCCGUUGAAUGGAGUUUAUCAUG | -3.5
6 | GGAUCUUCUCGAUCUAACAAAAAAGACAAUUCCGCCACAAAGCUUGAGAGCAUCUUCGGAUGCAGAGGCGGCAGCCUUCGGUGGCGCGAUAGCGCCAACGUUCUCAACUAUGACACGCAAAACGCGUGCUCCGUUGAGUGGAGUUUAUCAUG | ≤ -4.2
7 | GGAUCUUCUCGAUCUAACAAAAAAGACAAAACUGCCACAAAGCUUGAGAGCAUCUUCGGAUGCAGAGGCGGCUGCCUUCGGUGGCGCGAUAGCGGCAACGUUCUCAACUAUGACACGCAAAACGCGUGCUCCGUUGAAUGGAGUUUAUCAUG | -3.66
8 | GGAUCUUCUCGAUCUAACAAAAAAGACAAAACUGCCACAAAGCUUGAGAGCCUCUUCGGAUGCAGAGGCGGCAGCCUUCGGUGGCGCGAUUGCGCCAACGUUCUCAACUAUGACACGCAAAACGCGUGCUCCGUUGAAUGGAGUUUAUCAUG | -4.06
9 | GGAUCUUCUCGAUCUAACAAAAAAGACAAUUCUGCCACAAAGCUUGAGAGCAUCUUCGGAUGCAGAGGCGGCAGCCUUCGGUUGCGCGAUAGCGCCAACGUUCUCAACUAUGACACGCAAAACGCGUGCUCCGUUGAAUGUAGUUUAUCAUG | -3.89
10 | GGAUCUUCUCGAUCUAACAAAAAAGACAAAACUGCCACAAAGCUUGAGAGCAUCUUCGGAUGCAGAGGCGGCAGCCUUCGGUGGCGCGCUAGCGCCAACGUUCUCAACUAUGACACGCAAAACGCGUGCUCCGUUGAAUGGAGUUUAUCAUG | -0.512
11 | GGAUCUUCUCGAUCUAACAAAAAAGACAAAACUGCCACAUAGCUUGAGAGCAUCUUCGGAUGCAGAGGCGGCAGCCUUCGGUGGGGCGAUAGCGCCAACGUUCUCGACUAUGACACGCAAAACGCGUGCUCCGUUGAAUAGAGUUUAUAAUG | ≤ -4.2
12 | GGAUCUUCUCGAUCUAACAAAAAAGACAAUUCUGCCACAAAGCUUGAGAGCAUCUGCGGAUGCAGAGGCGGCAGCCUUCGGUGACGCGAUAGCGCUAACGUUCUCAACUAUGCCACGCAAAACGUGUGCUCCGAUGAAUGGUGUUUAUCAUG | ≤ -4.2
13 | GGAUCUUCUCGAUCUAACAAAAAAGACAAUUCUGCCACAAAGCUUGAGAGCAUCUUCGGAUGCAGAGGCGGCAGCCUUCGGUGGCACGAUAGCGCCAACGUUCUCAACUAUGACACGCAAAACGCGUGCUCCGUUGAAUGGAGUUUAUCAUG | -3.95
14 | GGAUCUUCUCGAUCUAACAAAAAAGACAAAACUGCCACAAAGCUUGAGGGCAUCUUCGGAUGCAGAGGCGGCAGCCUUCGGUGGCGCGAUAGCGCCAACGUUCUUAACUAUGACACGCAAAACGCGUGCUCCGUUGAAUGGAGUUUAUCAUG | -0.707
15 | GGAUCUUCUCGAUCUAACAAAAAAGACAAUUCUGCCACAAAGCUUGAGAGCAUCUUCGGAUGCAGAGGCGGCAGCCUUCGGUGGCGCGAUAGCGCCAACGUUCUCAACUAUGACACGCAAAACGCGUGCUCCGUUGAAUGGAGAUUAUCAUG | -3.67
16 | GGAUCUUCUCGAUCUAACAAAAAAGACAAAACUGCCACAAAGCUUGAGAGCAUCUUCGGAUGCAGUGGCGGCAGCCUUCGGUGGCUCGAUAGCGCCAACCUUCUCAACUAUGACACGCAAAACGCGUGCUCCGUUGAAUGGAGUUUAUCAUG | ≤ -4.2
17 | GGAUCUUCUCGAUCUAACAAAAAAGACAAAACUGCCACAAUGCUUGAGAGCAUCUUCGGAUGCAGAGGCGGCAGCCUUCGGUCGCGCGAUAGCGCCAACGUUCUCAACUAGGACACGCAAAACGCGUGCUCCGUUCAAUGGAGUUUAUCAUG | ≤ -4.2
18 | GGAUCUUCUCGAUCUAACAAAAAAGACAAUUCUGCCACAAAGCUUGAGAGCAUCUUCGGAAGCAGAGGCCGCAGCCUUCGGUGGCGCGAUAGCGCAAACGUUCUCAACUAGGACACGCAAAACGCGUGCUCCGUUGAAUAGAGUUUAUCAUG | ≤ -4.2
19 | GGAUCUUCUCGAUCUAACAAAAAAGACAAAACUGCCACAAAGCUUGCGAGCAUCUACGGAUGCAGAGGCGGCAGCCUUCGGUGGCGUGAUAGCGCCAACGUUCUCAACUAUGACACGCAAAACGCGUGCUCCGUUGAAUGGAGUUUAUCAUG | -0.397

Row | Variant | polymerase ribozyme fitness (log ratio)
20 | GGAUCUUCUCGAUCUAACAAAAAAGACAAAACUGCCACGUCGCUUGAAAGCAUCUUCGGAUGCAGAGGCGGCAGCCUUCGGUGGCGCGAUAGCGUCAACGUUCUCAACUAUGACACGCAAAACGCGUGCUGCGUUGAAUGGAGUUUAACAUG | ≤ -4.2
21 | GGAUCUUCUCGAUCUAACAAAAAAGACAAUUCUGCCACAAAGCAUGAGAGCAUCUUCGGAUGCAGAGGCGGCAGCCUUCGGUGGAGCGAUAGCGCCAACGUUCUCAACUCCGACACGCAAAACGCGUGCUCCGUUGAAUGGAGUUUAUCAUG | ≤ -4.2
22 | GGAUCUUCUCGAUCUAACAAAAAAGACAAUUCUGCCACAAAGCUUGAGAGCAUCAUCGGAUGCAGAGGCGGCAGCCUUCGGUGGCGCGAUAGCGCCAACGUUCUCAACUAUGACACGCAAAACGCGUGCUCCGUUGAAUGGAGUUUAUCAUG | -2.96
23 | GGAUCUUCUCGAUCUAACAAAAAAGACAAUUCUGCCACAAAGCUUGAGAGCAUCUUCGGAUGCAGAGGCGGCAGCCUUCGGUGACGCGAUAGCGCUAACGUUCUCAACUAUGACACGCAAAACGCGUGCUCCGUUGAAUGGAGAUUAUCAUG | ≤ -4.2
24 | GGAUCUUCUCGAUCUAACAAAAAAGACAAUUCUGCCACAAAGCUUGAGAGCAUCUUCGGAUGCAGAGGCGGCAGCCUUCGGUGGCGCGAUAGCACCAACGUUCUCAACUAUGACACGCAAAACGCGUGCUCCGUUGAAUGGAGUUUAUCAUG | -3.7
25 | GGAUCUUCUCGAUCUAACAAAAAAGACAAUUCUGCCACAAAGCUUGAGAGCAUCUUCGGAUGCAGAGGCGGCAGCCUUCGGUGGCGCGAUAGCUCCAACGUUCUCAACUAUGACACGCAAAACGCGUGCUCCGUUGAAUGGAGUUUAUCAUG | ≤ -4.2
26 | GGAUCUUCUCGAUCUAACAAAAAAGACAAUUCUGCCACAAAGCUGGAGAGCAUCUUCGGAUGCAGAGGCGGCAGCCUUCGGUGGCGCGAUAGUGCCAACGUUGUCAACUAUGACACGGAAAACGCGUGCUCCGUUGAAUGGAGUUUAUCAUG | ≤ -4.2
27 | GGAUCUUCUCGAUCUAACAAAAAAGACAAUUCUGCCACAAAGCUAGAGACCAUCUUCGGAUGCAGAGGCGGCAGCCUUGGGUCGCGCGAUAGCGCCAACGUUCUCAACUAUGACACGCAAAACGCCUGCUCCGUUGAAUGGAGUUUAUCAUG | ≤ -4.2
28 | GGAUCUUCUCGAUCUAACAAAAAAGACAAUUCUGCCACAAAGCUUGAGAGCAUCAUCGGAUGCAGAGGCGGCAACCUUUGGUGGCGAGAUAGCGCCAACGUUCUCAACUAUGACAAGCAAAACGCGUGCUCCGUUGAAUGGAGUUUAUCAUG | ≤ -4.2
29 | GGAUCUUCUCGAUCUAACAAAAAAGACAAAACUGCCACGAAGCUUGAGAGCAUCUUCGGAUGCAGACGCGGGAGCCUUCGGUGGCGCGAUAGCGCUAACGUUCUCAUCUAUGGCCCGCAAAACGCGUGCUCCGUUGAAUGGAGUUUAACAUG | ≤ -4.2
30 | GGAUCUUCUCGAUCUAACAAAAAAGACAAUUCUGCCACAAAGCUUGAGAGCAUCGUAGGAUGCAGAGGCGGCAGCCUUCGGUGGCGCGAUAGUGCCAACGUUCUCAACUAUGACACGCAAAACGCGUGCUCCGUUGAAUGGAGUUUAUCAUG | -4.13
31 | GGAUCUUCUCGAUCUAACAAAAAAGACAAUUCUGCCACAAAGCUUGAGAGCAUCAUCGAAUGCAGAGGCAGCAGCCUUCGGUGGCGCGAUAGCGCGGACGUUCUCAACUAUGACACGCAAAACGCGUGCUCCGUUGAAUGGAGUUUAUCAUG | ≤ -4.2
32 | GGAUCUUCUCGAUCUAACAAAAAAGACAAAACUGCCACUAAGCUUGAGAGCAUCUUCGGAUGCAGAGGCGGCAGCCUUCGGUGGCGCGAUAGGGUCAAUGUUCUCAGCUAUGUCACGCAAAACGCGUGCUCUGUCGAGUGGAGUUUAUCAUG | ≤ -4.2
33 | GGAUCUUCUCGAUCUAACAAAAAAGACAAUUCUGCCACAAAGCUUGAGAGCAUCUUCGGAUGCAGAGGCGGCAGCCUUCGGAGGAGCGAUAGCGCCAACGUUCACAACUAUGACACGCAAAACGCGUGCUCCGUUGAAUGGAGUUUAUCAUG | ≤ -4.2
34 | GGAUCUUCUCGAUCUAACAAAAAAGACAAAACUGCCACAAAGCUUGAGGGCAUCAUCGUAUGCAGAGGCGGCAGCCUUCGGUGGCGCGAUAGCGCGAACGUUCUCAACUAUGACACGCAAAACGCGUGCUCCGUUGAAUGGAGUUUAUCAUG | -1.89
35 | GGAUCUUCUCGAUCUAACAAAAAAGACAAAACUGCCACAAAGCUUGAGAGCAUCUUCGGAUGCAGAGGCGGCAGCCUUCGGUGGCGCGAUCGCGCCAACGUUCUCAACUAUGACAAGCAAAACGCGUGCUCCGUUGAAUGGAGUUUAUCAUG | -3.88
36 | GGAUCUUCUCGAUCUAACAAAAAAGACAAAACUGCCACAAAGCUUGAGAGCCUCUUCCGAUGCAGAGGCGGCAGCCUUCGGUAGCGCGAUAGCGCCAACGUUCUCAACUAUGACACGCAAAACGCGUGCUCCGUUGAAUGGAGUUUAUCAUG | -4.11
37 | GGAUCUUCUCGAUCUAACAAAAAAGACAAAACUGCCACAAAGCUUGAGAGCGUCUUCGGAUGCAGAGGCGGCAGCCUUCGGUGUCGCGAUAGCGCCAACGUUCUCAACUAUGACACGCAAAACGCGUGCUCCGUUGAAUGGAGUUUAUCAUG | -0.528
38 | GGAUCUUCUCGAUCUAACAAAAAAGACAAAACUGCCACAAAGCUUGAGAGCAUCUUCGGAUGCAGAGGCGGCCGCCUUCGGUGGCGCGAUAGCGCCAACGUUCUCAACUAUGACACGCAAAACGCGUGCUCCGUUGAAUGGAGUUUAUCAUG | -4.13
